Results on one molecule are retold here after patent US20120107364A1 (ACTGEN, published 2012).

Common to all, as to assay: flow cytometry on Ba/F3 cells expressing the truncated PODXL2
Experiment [1] concerns the target T1, PODXL2, positions 1 to 350 (human, UniProt O00592 23-382).
T1 construct: One of the 14 C-terminal truncations; Expressed on Ba/F3 cells; also called R350
T1 sequence: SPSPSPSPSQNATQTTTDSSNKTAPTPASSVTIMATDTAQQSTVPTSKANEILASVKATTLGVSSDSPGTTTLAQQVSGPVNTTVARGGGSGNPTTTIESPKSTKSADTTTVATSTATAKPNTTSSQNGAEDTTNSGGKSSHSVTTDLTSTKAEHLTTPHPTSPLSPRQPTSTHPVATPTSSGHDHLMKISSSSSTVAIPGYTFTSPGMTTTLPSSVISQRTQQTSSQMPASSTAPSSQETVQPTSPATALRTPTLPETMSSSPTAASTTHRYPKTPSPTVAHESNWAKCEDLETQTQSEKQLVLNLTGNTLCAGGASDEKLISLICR
Here is the method: (§1) To each sample of the cell suspension, 50 μl of the hybridoma culture supernatant or 2-μg/ml of the purified antibody (hereinafter, referred to as an “antibody solution”) was added, and the antibody was reacted with the cells. As an isotype control of the antibody solution, a wash buffer containing 2 μg/ml of each of mouse IgG1 (BioLegend, 400412), mouse IgG2a (BioLegend, 400224), and mouse IgG2b (BioLegend, 400324) was used. The hybridoma culture supernatant was reacted with the target cells at room temperature for 30 minutes, followed by centrifugation at 700×g for 2 minutes. Then, a culture supernatant was removed. Further, 100 μl of a wash buffer was added, followed by centrifugation at 700×g for 2 minutes again. A supernatant was removed. Then, the cells were washed.
(§2) Next, to the cell pellets after the washing, 50 μl of Goat anti-mouse IgG, F(ab′) 2-PE (PE=phycoerythrin, Beckman Coulter, IM0855) diluted 200-fold with a wash buffer was added as a secondary antibody for detection, and reacted in the dark at room temperature for 30 minutes. The reaction was followed by centrifugation at 700×g for 2 minutes. A supernatant was removed. Further, 100 μl of a wash buffer was added, followed by centrifugation at 700×g for 2 minutes again. A supernatant was removed. Then, the cells were washed. Thereafter, the cells were suspended in an appropriate amount of a wash buffer. The reactivity between the antibody and the cells was analyzed by a flow cytometer (Beckman Coulter, FC500 MPL).
(§3) Thereafter, by the same method as in Example 1 (4) (the virus packaging and thereafter), Ba/F3 cells containing the PODXL2 gene sequences of various chain lengths were prepared. Further, by the same method as in Example 4, the reactivity between the ACT36-27_{—}5D1 antibody and the Ba/F3 cells expressing the PODXL2 molecules of various chain lengths was analyzed by a flow cytometer (FIG. 10).

Experiment [2] concerns the target T2, PODXL2, positions 1 to 360 (human, UniProt O00592 23-392).
T2 construct: One of the 14 C-terminal truncations; Expressed on Ba/F3 cells; also called R360
T2 sequence: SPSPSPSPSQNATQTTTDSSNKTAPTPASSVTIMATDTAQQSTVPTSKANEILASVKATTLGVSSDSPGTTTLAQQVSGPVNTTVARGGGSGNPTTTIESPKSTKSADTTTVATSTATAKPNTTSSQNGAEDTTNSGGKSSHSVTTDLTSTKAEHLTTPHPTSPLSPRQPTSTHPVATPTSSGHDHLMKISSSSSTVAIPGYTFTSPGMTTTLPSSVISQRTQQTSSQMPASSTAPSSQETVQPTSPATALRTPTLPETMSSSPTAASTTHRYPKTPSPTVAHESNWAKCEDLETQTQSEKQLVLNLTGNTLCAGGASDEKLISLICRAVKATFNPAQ
Here is the method: as §1, §2, §3

The target of experiment [3] is T3, PODXL2, positions 1 to 400 (human, UniProt O00592 23-432).
T3 construct: Encoded as positions 1-400 in pMX-SST and expressed on Ba/F3 cells; The vector-encoded part is not described; also called R400
T3 sequence: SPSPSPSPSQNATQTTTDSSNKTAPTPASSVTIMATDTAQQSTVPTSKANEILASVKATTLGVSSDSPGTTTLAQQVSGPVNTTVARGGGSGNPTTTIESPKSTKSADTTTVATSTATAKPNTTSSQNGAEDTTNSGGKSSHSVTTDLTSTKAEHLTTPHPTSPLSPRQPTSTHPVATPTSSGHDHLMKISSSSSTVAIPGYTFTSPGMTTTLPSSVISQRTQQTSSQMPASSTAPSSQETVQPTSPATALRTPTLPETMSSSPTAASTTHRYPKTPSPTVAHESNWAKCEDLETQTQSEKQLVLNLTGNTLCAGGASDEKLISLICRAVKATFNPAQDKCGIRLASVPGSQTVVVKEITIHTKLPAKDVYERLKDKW
The procedure:
as §1, §2, §3

Experiment [4] has as its target T4, PODXL2, positions 1 to 320 (human, UniProt O00592 23-352).
T4 construct: One of the 14 C-terminal truncations; Expressed on Ba/F3 cells; also called R320
T4 sequence: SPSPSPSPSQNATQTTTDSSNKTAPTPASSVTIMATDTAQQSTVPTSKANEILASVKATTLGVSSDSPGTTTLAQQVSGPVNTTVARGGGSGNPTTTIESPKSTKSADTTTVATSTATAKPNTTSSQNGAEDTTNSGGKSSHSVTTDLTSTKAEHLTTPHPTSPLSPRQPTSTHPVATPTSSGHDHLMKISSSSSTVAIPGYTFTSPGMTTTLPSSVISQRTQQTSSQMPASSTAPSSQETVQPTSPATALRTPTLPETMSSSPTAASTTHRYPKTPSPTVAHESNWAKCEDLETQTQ
Here is the method: as §1, §2, §3

In experiment [5] the target is T5, PODXL2, positions 1 to 420 (human, UniProt O00592 23-452).
T5 construct: Encoded as positions 1-420 in pMX-SST and expressed on Ba/F3 cells; The vector-encoded part is not described; also called R420
T5 sequence: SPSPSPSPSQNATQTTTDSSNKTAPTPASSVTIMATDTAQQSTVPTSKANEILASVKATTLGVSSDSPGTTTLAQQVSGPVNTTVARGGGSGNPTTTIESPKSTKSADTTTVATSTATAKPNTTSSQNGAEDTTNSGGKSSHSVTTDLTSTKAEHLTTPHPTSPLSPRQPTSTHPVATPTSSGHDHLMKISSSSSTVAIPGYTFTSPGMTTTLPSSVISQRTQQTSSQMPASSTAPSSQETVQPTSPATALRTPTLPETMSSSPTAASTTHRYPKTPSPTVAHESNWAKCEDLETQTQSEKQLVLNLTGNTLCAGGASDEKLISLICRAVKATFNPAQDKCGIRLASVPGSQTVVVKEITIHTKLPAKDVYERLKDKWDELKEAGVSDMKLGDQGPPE
Here is the method:
as §1, §2, §3

B1: ACT36-27-5D1 antibody (antibody, V domains shown)
VH: EVQLQQSGPELVKPGASVKMSCKASGYTFTSYVMHWVKQKPGQGLEWIGYIHPYNDGIKYNEKFKGKATLTSDKSSSTAYMDLSSLTSEDSAVYYCARSWDWYFDVWAAGTTVTVSS
VL: QIVLTQSPAIMSASPGEKVSMTCSASSSVSYMHWYQQKSGTSPKRWIYDTSKLASGVPARFSGSGSGTSYSLTISSMEAEDAATYYCLQWSSNPPTFGGGTKLE
notes: also called anti-PODXL2 antibody ACT36-27-5D1; anti-ACT36-27-5D1 monoclonal antibody
Regarding B1, the binding result is listed as “no binding” in experiment [1]; “no binding” in experiment [2]; “no binding” in experiment [3]; “no binding” in experiment [4]; “binds” in experiment [5].
